Patent US7879328B2 (Human Genome Sciences, Inc., priority 2000, dated 2011)
Where a chain is given by its changes, count along the chain named. Each block holds one molecule with its values, some of them ahead of it.

Legend:
HIV = settings: greater activity; cited from earlier work
[1] = target: mouse B Lymphocyte Stimulator (Mus musculus, UniProt Q9WU72); experiment: Phage ELISA on immobilized mouse B Lymphocyte Stimulator; type: binding; settings: phage scFv; antigen coated at 1 μg/ml
Protocol: To determine the specificity of the 48 scFvs, a phage ELISA was performed against human and mouse B Lymphocyte Stimulator, and a panel of related and unrelated human antigens: Fas ligand, TRAIL, TNFα, TNFβ, and PBS, The: Fas ligand, TRAIL, TNFα, and TNFβ antigens were obtained from R&D Systems, Minneapolis, Minn., Individual E. coli colonies containing phagemid were inoculated into 5 ml 2YTAG and incubated at 37° C. for 4 hours, shaking. M13KO7 helper phage (Pharmacia) was added to each tube to a MOI of 10 and incubated […] 1 hour, the first 30 minutes static and the final 30 minutes with gentle shaking. Cells were pelleted by centrifugation at 3,500 rpm for 10 minutes and the supernatant discarded. Cell pellets were resuspended in 5 ml 2TYAK and incubated at 30° C. overnight with shaking. The next day, the cells were pelleted by centrifugation at 3,500 rpm for 10 minutes. The phage-containing supernatant (5 ml) was carefully transferred to a fresh tube, 1 ml of 6MPBS was added, and the tube was incubated at room temperature for 1 hour to pre-block the phage prior to ELISA.
All antigens were coated at 1 μg/ml. ELISAs were performed essentially as described in Example 2. The only exception to this being the detection of phage antibody binding to mouse B Lymphocyte Stimulator where the step involving incubation with the HRP-labelled anti-mouse polymer was omitted. Binding to mouse B Lymphocyte Stimulator was detected with TMB as in Example 2.
To determine the specificity of the 33 scFvs, a phage ELISA was performed as described in Example 4 against human and mouse B Lymphocyte Stimulator, and a panel of related human antigens: TRAIL, LIGHT, TNFα, TNFβ, and an uncoated well (PBS only).

[2] = target: T1, murine membrane-bound B Lymphocyte Stimulator on P388 plasma membranes (Mus musculus, UniProt Q9WU72); experiment: Competition ELISA on P388 plasma membranes; type: binding; settings: phage scFv; for competition of P388 plasma membrane binding by HIS-tagged B Lymphocyte Stimulator: human competitor; for recognition of P388 plasma membranes: membranes coated at 10 μg/ml
T1 construct: endogenous in cells; host or cells: P388.D1 cells, plasma membrane fraction coated on plates
T1 sequence (Q9WU72 whole entry): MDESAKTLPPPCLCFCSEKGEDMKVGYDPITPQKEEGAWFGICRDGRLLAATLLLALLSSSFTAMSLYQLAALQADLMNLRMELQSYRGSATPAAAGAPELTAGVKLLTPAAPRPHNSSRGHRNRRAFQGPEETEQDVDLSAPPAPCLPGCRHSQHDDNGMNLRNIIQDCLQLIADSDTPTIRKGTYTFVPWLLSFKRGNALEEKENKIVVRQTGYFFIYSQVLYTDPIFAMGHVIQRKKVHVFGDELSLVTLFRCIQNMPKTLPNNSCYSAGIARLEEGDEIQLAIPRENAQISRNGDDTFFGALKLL
Protocol: The ability of the 5 scFvs listed in Table 8 to also recognize murine membrane-bound B Lymphocyte Stimulator was determined using a competition ELISA. This assay assesses the ability of test phage scFvs to bind to the membrane-bound form of B Lymphocyte Stimulator on the murine cell line, P388, plasma membranes in the presence of different forms of competing human B Lymphocyte Stimulator. Competing B Lymphocyte Stimulator was either presented as the His-tagged form of B Lymphocyte Stimulator, or soluble B Lymphocyte Stimulator. ScFvs that recognize mouse membrane-bound B Lymphocyte Stimulator would give an ELISA signal on the P388 plasma membranes that is competed out by pre-incubation with HIS-tagged B Lymphocyte Stimulator but not by pre-incubation with soluble B Lymphocyte Stimulator.
P388.D1 cells are a mouse monocyte-macrophage like cell line. They were cultured in L15 medium supplemented with 2 mM L-glutamine, 10% CS, 10U penicillin, 100 µg/ml streptomycin (all reagents from Sigma). Cells were split 1:4 every 3-4 days to maintain a cell density of 2−8×10^5 per ml. A fresh aliquot of cells was thawed from liquid nitrogen every 6 weeks. Plasma membrane fractions were prepared as described in Example 2.
P388 plasma membranes ([…] per well) were coated at 10 μg/ml in PBS onto Falcon 96-well plates overnight at 4° C. The method is otherwise essentially as described Example 16.

Chain of mouse B Lymphocyte Stimulator (Q9WU72 127-309 limits assumed): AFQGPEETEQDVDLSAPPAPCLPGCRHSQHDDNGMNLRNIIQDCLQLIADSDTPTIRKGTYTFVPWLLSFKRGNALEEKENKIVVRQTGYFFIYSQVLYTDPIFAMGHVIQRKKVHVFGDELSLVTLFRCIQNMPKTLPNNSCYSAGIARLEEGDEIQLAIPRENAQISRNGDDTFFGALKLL

Molecule: CC[C@H]1C(=O)Nc2ccc(F)cc2N1C(=O)OC(C)C [GW-420867X]
activity relative to HBY097 (HIV): 25 fold

binding to immobilized mouse B Lymphocyte Stimulator [1]: did not bind
B1: I008C03: scFv, panel 1, binds soluble and membrane-bound B Lymphocyte Stimulator (protein, listed as Homo sapiens)
scFv: QMQLVRSGGGVVQPGRSLRLSCAASGFTFSSYGMHWVRQAPGKGLEWVSVTYSGGNTNYADSVRGRFTISRDNSKNTLYLQMNSLRAEDTAVYYCAREGSYDILTGYYVGVGRMDVWGKGTLVTVSSGGGGSGGGGSGGGGSSELTQDPAVSVALGQTVRITCQGDSLRSYYTNWFQQKPGQAPLLVVYAKNKRPSGIPDRFSGSSSGNTASLTITGAQAEDEADYYCNSRDSSGNHVVFGGGTKLTVLG

competition of P388 plasma membrane binding by HIS-tagged B Lymphocyte Stimulator [2]: competed out
recognition of P388 plasma membranes [2]: recognize
B2: I079E02: scFv, panel 3, binds membrane-bound B Lymphocyte Stimulator (protein, listed as Homo sapiens)
scFv: QVQLVQSGAEVKKPGSSVKVSCKASGGTFSSYAISWVRQAPGQGLEWMGGIIPIFGTANYAQKFQGRVTITADKSTSTAYMELSSLRSDDTAVYYCARDSGSYYYDAFDIWGKGTMVTVSSGGGGSGGGGSGGGGSDIVMTQSPSTLSASVGDRVTITCRASQGISSWLAWYQQKPGKAPKLLIYAASSLQSGVPSRFSGSGSGTDFTLTISSLQPEDFATYYCQQANSFPLTFGGGTKVEIKR

binding to immobilized mouse B Lymphocyte Stimulator [1]: did not bind
B3: I037E07: scFv, panel 1, binds soluble and membrane-bound B Lymphocyte Stimulator (protein, listed as Homo sapiens)
scFv: QVQLVQSGAEVKKPGASVKVSCKASGYTFTNYGITWVRQAPGQGLEWMGWISAYNGNRNYAQKLQGRVTMTTDTSTSTAYMELRSLRSDDTAVYYCVRDGIDILLVPAALMDVWGRGTMVTVSSGGGGSGGGGSGGGGSQSVLTQPASVSGSPGQSITISCTGTSSDVGGYNYVSWYQQHPGKAPKLMIYEGSKRPSGVSNRFSGSKSGNTASLTISGLQAEDEADYYCSSYTTRSTRVFGGGTKLTVLG

binding to immobilized mouse B Lymphocyte Stimulator [1]: did not bind
B4: I037E12: scFv, panel 1, binds soluble and membrane-bound B Lymphocyte Stimulator (protein, listed as Homo sapiens)
scFv: B3 scFv with Q1E, R116K, M119L, S193N

competition of P388 plasma membrane binding by HIS-tagged B Lymphocyte Stimulator [2]: competed out
recognition of P388 plasma membranes [2]: recognize
B5: I099D03: scFv, panel 3, binds membrane-bound B Lymphocyte Stimulator (protein, listed as Homo sapiens)
scFv: QVQLVQSGAEVKKPGASVRVSCKSSGYTFTNYGISWVRQAPGQGLEWMGWISNNNGKTYYAQKVQGRVTMTTDTSTSTDYMELRGLRSDDTAIYYCARDNGGGTIGFDYWGRGTLVTVSSGGGGSGGGGSGGGGSAQAVLTQPSSVSGAPGQRVTMSCTGSSSNIGAGYDVHWYQQLPGTAPKLLIYDNTNRPSGVPDRFSGSRSGTSASLAITGLQAEDEADYFCQSYDITLSAVFGTGTKVTVLG

competition of P388 plasma membrane binding by HIS-tagged B Lymphocyte Stimulator [2]: competed out
recognition of P388 plasma membranes [2]: recognize
B6: I082H08: scFv, panel 3, binds membrane-bound B Lymphocyte Stimulator (protein, listed as Homo sapiens)
scFv: EVQLVESGGGLVQPGGSLRLSCAASGFTFSDYGMHWVRQRPGKGLEWIAFIGSDGSNKYYGDTVKGRFTISRDNAKNSLYLQMNSLRAEGTAVYYCARDWDMDVWGQGTMVTVSSGGGGSGGGGSGGGGSSHVILTQPRSVSGSPGQSVTISCTGTSSDVGGYHYVSWYQQHPGKAPRLMIYEVTKRPSGVSNRFSGSKSGNTASLTISGVQAEDEADYYCSSYTSASTVIFGGGTKLTVLG
